Square brackets hold non-standard residues; d marks the D form. Ends that are not written are not given here. * marks the point of attachment. FITC = O=C1OC2(c3ccc(O)cc3Oc3cc(O)ccc32)c2ccc(NC(=S)*)cc21; pS = N[C@@H](COP(=O)(O)O)C(=O)O; Ahx = NCCCCCC(=O)O
Assays:
GST-fused LC3B [1] = molecular target: T1, GST-fused LC3B (UniProt Q9GZQ8 1-120); test: SPR
GST-fused LC3B [2] = molecular target: T1, GST-fused LC3B; test: microfluidic diffusional sizing

| Binder | Kd (GST-fused LC3B [1]) [µM] | koff (GST-fused LC3B [1]) [s⁻¹] | kon (GST-fused LC3B [1]) [M⁻¹ s⁻¹] | Kd (GST-fused LC3B [2]) [µM] | stoichiometry N (GST-fused LC3B [2]) | fold increase in binding affinity against pS177 alone (GST-fused LC3B [2]) [fold] | fold increase in Kd against pS177 alone (GST-fused LC3B [2]) [fold] |
| --- | --- | --- | --- | --- | --- | --- | --- |
| {FITC-Ahx}-NSSGSSED[pS]FVEIRMAE [FITC-Ahx OPTN LIR peptide 169-185 (pS177)] | 21.2 | 0.377 | 17800 | 14.9 | 1 | – | – |
| {FITC-Ahx}-NSSGSSEDSFVEIRMAE [FITC-Ahx OPTN LIR peptide 169-185 (WT)] | 63.5 | 0.0351 | 550 | 67.1 | 1 | – | – |
| {FITC-Ahx}-NSSGSSED[pS]WVEIRMAE [FITC-Ahx OPTN LIR peptide 169-185 (pS177 F178W)] | – | – | – | – | 1 | 7 | – |
| {FITC-Ahx}-NSSGSSEDSWVEIRMAE [FITC-Ahx OPTN LIR peptide 169-185 (F178W)] | – | – | – | 19.1 | 1 | – | – |
| {FITC-Ahx}-NSSGSSEDDFVEIRMAE [FITC-Ahx OPTN LIR peptide 169-185 (S177D)] | – | – | – | 36.7 | 1 | – | – |
| {FITC-Ahx}-NSSGSSED[pS]AVEIRMAE [FITC-Ahx OPTN LIR peptide 169-185 (pS177 F178A)] | > 100 | – | – | – | – | – | 7 |
| {FITC-Ahx}-NSSGSSEDEFVEIRMAE [FITC-Ahx OPTN LIR peptide 169-185 (S177E)] | – | – | – | 40.2 | 1 | – | – |
| {FITC-Ahx}-NSSGSSED[pS]FVEIRAAE [FITC-Ahx OPTN LIR peptide 169-185 (pS177 M183A)] | 36.7 | – | – | – | 1 | – | – |
